Article PMC10130389, “Growth hormone secretagogues modulate inflammation and fibrosis in mdx mouse model of Duchenne muscular dystrophy” (Frontiers in Immunology, 2023)
No end group written: not given here.

Columns and labels:
H2K-SF1 cells = experiment: CCK-8 cell viability, dystrophic H2K-SF1 cells; type: cell-based, murine; conditions: at 1 mM, proliferation and differentiation conditions, CCK-8, triplicate
Method: (§1) Wild-type (WT) H2K-2B4 and dystrophic H2K-SF1 cell lines were cultured and used for all the experiments ([48]). Cells were seeded in 96-well cultures (approximately 4–4.5 × 10^3 cells per well) and sixteen hours after seeding were treated with EP80317, JMV2894 (both in the concentration range 100μM to 1mM) or ghrelin (as control in the concentration range 10nM to 100 μM). Cell viability was then evaluated at different time points following the exposure (16-96 h) by using the Cell Counting Kit-8 (CCK-8,96992 Sigma-Aldrich), according to the instruction. The optical density of each well was determined using a microplate reader set to 450 nm (Victor 3V, Perkin Elmer, Waltham, MA, USA). Cell viability was expressed in percentage vs. control properly corrected for blank values.

H2K-2B4 cells = experiment: CCK-8 cell viability, WT H2K-2B4 cells; type: cell-based, murine; conditions: at 1 mM, proliferation and differentiation conditions, CCK-8, triplicate
Method: as §1

## ghrelin: 28 amino acid hormone, used as control in the cell viability assay (GSSFLSPEHQRVQQRKESKKPPAKLQPR; ends and bridges not checked; UniProt Q9UBU3 24-51, looked up)
H2K-SF1 cells
  toxic effect on SF1 cells: no toxic effect
H2K-2B4 cells
  toxic effect on 2B4 cells: no toxic effect
